Results as given in patent publication US20210371503A1.

What follows are binders tested against monomeric (SARS-CoV-2 S ectodomain monomer) (SARS-CoV-2) (assay: ELISA, coated monomeric S ectodomain [cont'd]).

Binder | EC50 [µg/mL]
MnC4t1p1_A10 (antibody, V domains shown) VH: QLQVQESGPGLVKPSETLSLTCTVSGASISSNHYFWGWIRQPPGKGLAWIGSMHYSGSTYYNPSLKSRVTISVDTSKNQLSLKLSSVTAADTAVYYCARGVNYYDRNGYYRNDGFDIRGQGTMVTVSS VL: DIQMTQSPSSLSASVGDRVTITCRASQGIRNDLGWYEQKPGKAPKRLIYAASSLESGVPSRFSGSGSGTEFTLTISSLQPEDFATYYCLQHNTYPFTFGPGTRVDIK | < 100
MnC4t2p1_D10 (antibody, V domains shown) VH: QLQVQESGPGLVKPSETLSLTCTVSGASISSNHYFWGWIRQPPGKGLAWIGSMHYSGSTYYNPSLKSRVTISVDTSKNQLSLKLSSVTAADTAVYYCARGVNYYDRNGYYRNDGFDIRGQGTMVTVSS VL: DIQMTQSPSSLSASVGDRVTITCRASQGIRNDLGWYEQKPGKAPKRLIYAASSLESGVPSRFSGSGSGTEFTLTISSLQPEDFATYYCLQHNTYPFTFGPGTRVDIK | < 100
MnC4t2p1_F5 (antibody, V domains shown) VH: QLQVQESGPGLVKPSETLSLTCTVSGASISSNHYFWGWIRQPPGKGLAWIGSMHYSGSTYYNPSLKSRVTISVDTSKNQLSLKLSSVTAADTAVYYCARGVNYYDRNGYYRNDGFDIRGQGTMVTVSS VL: DIQMTQSPSSLSASVGDRVTITCRASQGIRNDLGWYEQKPGKAPKRLIYAASSLESGVPSRFSGSGSGTEFTLTISSLQPEDFATYYCLQHNTYPFTFGPGTRVDIK | < 100
